Data taken from IntAct's records for PubMed 18617507.

B1: Serine/threonine-protein kinase VRK1 (Homo sapiens), Q99986 (parent)
chain: MPRVKAAQAGRQSSAKRHLAEQFAVGEIITDMAKKEWKVGLPIGQGGFGCIYLADMNSSESVGSDAPCVVKVEPSDNGPLFTELKFYQRAAKPEQIQKWIRTRKLKYLGVPKYWGSGLHDKNGKSYRFMIMDRFGSDLQKIYEANAKRFSRKTVLQLSLRILDILEYIHEHEYVHGDIKASNLLLNYKNPDQVYLVDYGLAYRYCPEGVHKEYKEDPKRCHDGTIEFTSIDAHNGVAPSRRGDLEILGYCMIQWLTGHLPWEDNLKDPKYVRDSKIRYRENIASLMDKCFPEKNKPGEIAKYMETVKLLDYTEKPLYENLRDILLQGLKAIGSKDDGKLDLSVVENGGLKAKTITKKRKKEIEESKEPGVEDTEWSNTQTEEAIQTRSRTRKRVQK

Variants of: B1
Conditions: with ran_human RAN

effect of a mutation on the interaction | Variant
decreasing interaction | K179E
